Experimental data as given in PMC11966277.

What follows are proteins tested on O=C(O)C(=O)O (assay: purified protein). Conditions: pH 4.2 (optimum), 52 mM sodium acetate, 140 mM NaCl, 37 °C, potassium oxalate 0-150 mM, Mn enzyme.

Row | Protein | Km [mM] | kcat [s⁻¹] | kcat/Km [M⁻¹ s⁻¹]
1 | Oxalate decarboxylase (OxDC) (Bacillus subtilis subsp. subtilis str. 168; H279D/T263E) (protein) MKKQNDIPQPIRGDKGATVKIPRNIERDRQNPDMLVPPETDHGTVSNMKFSFSDTHNRLEKGGYAREVTVRELPISENLASVNMRLKPGAIRELHWHKEAEWAYMIYGSARVTIVDEKGRSFIDDVGEGDLWYFPSGLPHSIQALEEGAEFLLVFDDGSFSENSTFQLTDWLAHTPKEVIAANFGVTKEEISNLPGKEKYIFENQLPGSLKDDIVEGPNGEVPYPFTYRLLEQEPIESEGGKVYIADSTNFKVSKTIASALVEVEPGAMRELHWHPNTDEWQYYISGKARMTVFASDGHARTFNYQAGDVGYVPFAMGHYVENIGDEPLVFLEIFKDDHYADVSLNQWLAMLPETFVQAHLDLGKDFTDVLSKEKHPVVKKKCSK | 5 ± 1 | 111 | 22000
2 | Oxalate decarboxylase (OxDC) (Bacillus subtilis subsp. subtilis str. 168) (protein) MKKQNDIPQPIRGDKGATVKIPRNIERDRQNPDMLVPPETDHGTVSNMKFSFSDTHNRLEKGGYAREVTVRELPISENLASVNMRLKPGAIRELHWHKEAEWAYMIYGSARVTIVDEKGRSFIDDVGEGDLWYFPSGLPHSIQALEEGAEFLLVFDDGSFSENSTFQLTDWLAHTPKEVIAANFGVTKEEISNLPGKEKYIFENQLPGSLKDDIVEGPNGEVPYPFTYRLLEQEPIESEGGKVYIADSTNFKVSKTIASALVTVEPGAMRELHWHPNTHEWQYYISGKARMTVFASDGHARTFNYQAGDVGYVPFAMGHYVENIGDEPLVFLEIFKDDHYADVSLNQWLAMLPETFVQAHLDLGKDFTDVLSKEKHPVVKKKCSK | 7 ± 2 | 103 | 15000
3 | Oxalate decarboxylase (OxDC) (Bacillus subtilis subsp. subtilis str. 168; I191F) (protein) MKKQNDIPQPIRGDKGATVKIPRNIERDRQNPDMLVPPETDHGTVSNMKFSFSDTHNRLEKGGYAREVTVRELPISENLASVNMRLKPGAIRELHWHKEAEWAYMIYGSARVTIVDEKGRSFIDDVGEGDLWYFPSGLPHSIQALEEGAEFLLVFDDGSFSENSTFQLTDWLAHTPKEVIAANFGVTKEEFSNLPGKEKYIFENQLPGSLKDDIVEGPNGEVPYPFTYRLLEQEPIESEGGKVYIADSTNFKVSKTIASALVTVEPGAMRELHWHPNTHEWQYYISGKARMTVFASDGHARTFNYQAGDVGYVPFAMGHYVENIGDEPLVFLEIFKDDHYADVSLNQWLAMLPETFVQAHLDLGKDFTDVLSKEKHPVVKKKCSK | 7 ± 2 | 101 | 14000
4 | Oxalate decarboxylase (OxDC) (Bacillus subtilis subsp. subtilis str. 168; Y244R) (protein) MKKQNDIPQPIRGDKGATVKIPRNIERDRQNPDMLVPPETDHGTVSNMKFSFSDTHNRLEKGGYAREVTVRELPISENLASVNMRLKPGAIRELHWHKEAEWAYMIYGSARVTIVDEKGRSFIDDVGEGDLWYFPSGLPHSIQALEEGAEFLLVFDDGSFSENSTFQLTDWLAHTPKEVIAANFGVTKEEISNLPGKEKYIFENQLPGSLKDDIVEGPNGEVPYPFTYRLLEQEPIESEGGKVRIADSTNFKVSKTIASALVTVEPGAMRELHWHPNTHEWQYYISGKARMTVFASDGHARTFNYQAGDVGYVPFAMGHYVENIGDEPLVFLEIFKDDHYADVSLNQWLAMLPETFVQAHLDLGKDFTDVLSKEKHPVVKKKCSK | 5 ± 1 | 95 | 19000
5 | Oxalate decarboxylase (OxDC) (Bacillus subtilis subsp. subtilis str. 168; H279D) (protein) MKKQNDIPQPIRGDKGATVKIPRNIERDRQNPDMLVPPETDHGTVSNMKFSFSDTHNRLEKGGYAREVTVRELPISENLASVNMRLKPGAIRELHWHKEAEWAYMIYGSARVTIVDEKGRSFIDDVGEGDLWYFPSGLPHSIQALEEGAEFLLVFDDGSFSENSTFQLTDWLAHTPKEVIAANFGVTKEEISNLPGKEKYIFENQLPGSLKDDIVEGPNGEVPYPFTYRLLEQEPIESEGGKVYIADSTNFKVSKTIASALVTVEPGAMRELHWHPNTDEWQYYISGKARMTVFASDGHARTFNYQAGDVGYVPFAMGHYVENIGDEPLVFLEIFKDDHYADVSLNQWLAMLPETFVQAHLDLGKDFTDVLSKEKHPVVKKKCSK | 6 ± 2 | 58 | 10000
6 | Oxalate decarboxylase (OxDC) (Bacillus subtilis subsp. subtilis str. 168; I191F/T263E) (protein) MKKQNDIPQPIRGDKGATVKIPRNIERDRQNPDMLVPPETDHGTVSNMKFSFSDTHNRLEKGGYAREVTVRELPISENLASVNMRLKPGAIRELHWHKEAEWAYMIYGSARVTIVDEKGRSFIDDVGEGDLWYFPSGLPHSIQALEEGAEFLLVFDDGSFSENSTFQLTDWLAHTPKEVIAANFGVTKEEFSNLPGKEKYIFENQLPGSLKDDIVEGPNGEVPYPFTYRLLEQEPIESEGGKVYIADSTNFKVSKTIASALVEVEPGAMRELHWHPNTHEWQYYISGKARMTVFASDGHARTFNYQAGDVGYVPFAMGHYVENIGDEPLVFLEIFKDDHYADVSLNQWLAMLPETFVQAHLDLGKDFTDVLSKEKHPVVKKKCSK | 5 ± 1 | 37 | 7000
7 | Oxalate decarboxylase (OxDC) (Bacillus subtilis subsp. subtilis str. 168; H279D/I191F) (protein) MKKQNDIPQPIRGDKGATVKIPRNIERDRQNPDMLVPPETDHGTVSNMKFSFSDTHNRLEKGGYAREVTVRELPISENLASVNMRLKPGAIRELHWHKEAEWAYMIYGSARVTIVDEKGRSFIDDVGEGDLWYFPSGLPHSIQALEEGAEFLLVFDDGSFSENSTFQLTDWLAHTPKEVIAANFGVTKEEFSNLPGKEKYIFENQLPGSLKDDIVEGPNGEVPYPFTYRLLEQEPIESEGGKVYIADSTNFKVSKTIASALVTVEPGAMRELHWHPNTDEWQYYISGKARMTVFASDGHARTFNYQAGDVGYVPFAMGHYVENIGDEPLVFLEIFKDDHYADVSLNQWLAMLPETFVQAHLDLGKDFTDVLSKEKHPVVKKKCSK | 5 ± 2 | 110 | 22000
